Test results taken from US7884189B2, “Carboxyltransferase domain of acetyl-CoA carboxylase” (The Trustees of Columbia University in the City of new York, priority 2003, dated 2011).
Where two headings read alike, the source gives them in different places.

B1: L1705I/V1967I double mutant of the yeast CT domain (residues 1476-2233) (enzyme)
chain: GSMHLRPIATPYPVKEWLQPKRYKAHLMGTTYVYDFPELFRQASSSQWKNFSADVKLTDDFFISNELIEDENGELTEVEREPGANAIGMVAFKITVKTPEYPRGRQFVVVANDITFKIGSFGPQEDEFFNKVTEYARKRGIPRIYLAANSGARIGMAEEIVPLFQVAWNDAANPDKGFQYLYLTSEGMETLKKFDKENSVLTERTVINGEERFVIKTIIGSEDGLGVECIRGSGLIAGATSRAYHDIFTITLVTCRSVGIGAYLVRLGQRAIQVEGQPIILTGAPAINKMLGREVYTSNLQLGGTQIMYNNGVSHLTAVDDLAGVEKIVEWMSYVPAKRNMPVPILETKDTWDRPVDFTPTNDETYDVRWMIEGRETESGFEYGLFDKGSFFETLSGWAKGVVVGRARLGGIPLGVIGVETRTVENLIPADPANPNSAETLIQEPGQVWHPNSAFKTAQAINDFNNGEQLPMMILANWRGFSGGQRDMFNEILKYGSFIVDALVDYKQPIIIYIPPTGELRGGSWVVVDPTINADQMEMYADVNARAGVLEPQGMVGIKFRREKLLDTMNRLDDKYRELRSQLSNKSLAPEVHQQISKQLADRERELLPIYGQISLQFADLHDRSSRMVAKGVISKELEWTEARRFFFWRLRRRLNEEYLIKRLSHQVGEASRLEKIARIRSWYPASVDHEDDRQVATWIEENYKTLDDKLKGLKLESFAQDLAKKIRSDHDNAIDGLSEVIKMLSTDDKEKLLKTLK
notes: also called mutated yeast CT domain; mutant CT domain; not shown: C-terminal His-tag of the parent pET24d construct
B2: L1705I (protein)
chain: GSMHLRPIATPYPVKEWLQPKRYKAHLMGTTYVYDFPELFRQASSSQWKNFSADVKLTDDFFISNELIEDENGELTEVEREPGANAIGMVAFKITVKTPEYPRGRQFVVVANDITFKIGSFGPQEDEFFNKVTEYARKRGIPRIYLAANSGARIGMAEEIVPLFQVAWNDAANPDKGFQYLYLTSEGMETLKKFDKENSVLTERTVINGEERFVIKTIIGSEDGLGVECIRGSGLIAGATSRAYHDIFTITLVTCRSVGIGAYLVRLGQRAIQVEGQPIILTGAPAINKMLGREVYTSNLQLGGTQIMYNNGVSHLTAVDDLAGVEKIVEWMSYVPAKRNMPVPILETKDTWDRPVDFTPTNDETYDVRWMIEGRETESGFEYGLFDKGSFFETLSGWAKGVVVGRARLGGIPLGVIGVETRTVENLIPADPANPNSAETLIQEPGQVWHPNSAFKTAQAINDFNNGEQLPMMILANWRGFSGGQRDMFNEVLKYGSFIVDALVDYKQPIIIYIPPTGELRGGSWVVVDPTINADQMEMYADVNARAGVLEPQGMVGIKFRREKLLDTMNRLDDKYRELRSQLSNKSLAPEVHQQISKQLADRERELLPIYGQISLQFADLHDRSSRMVAKGVISKELEWTEARRFFFWRLRRRLNEEYLIKRLSHQVGEASRLEKIARIRSWYPASVDHEDDRQVATWIEENYKTLDDKLKGLKLESFAQDLAKKIRSDHDNAIDGLSEVIKMLSTDDKEKLLKTLK
modifications: left off: small tags and cut ends

Assays:
[1] = Kinetic parameters of wild-type and mutant yeast CT (reverse reaction, malonyl-CoA to biotin methyl ester); assay type: biochemical, S. cerevisiae; settings: 2.5 μM of the enzyme
Excerpt: (§1) Enzyme kinetic assays. The CT domain can catalyze the decarboxylation of malonyl-CoA to produce acetyl-CoA in the presence of biotin methyl ester. The kinetic assays monitored the production of acetyl-CoA by coupling it to citrate synthase and malate dehydronase, which ultimately lead to the reduction of NAD^+ (Guchhait et al., 1974, J. Biol. Chem. […]). Mutations in the active site were designed based on the structural information. The mutants were made with the QuikChange kit (Stratagene) and sequenced for confirmation. They were purified and assayed kinetically under the same condition as the wild-type protein. The kinetic parameters for each enzyme were obtained by non-linear least-squares fitting to the initial velocity data.
To characterize the functional roles of the conserved residues in the active site, many of them were mutated and the kinetic parameters of the mutants for the reverse reaction, which transfers the carboxyl group of malonyl-CoA to biotin (Table D) were determined. […] Based on the structures of the invention, it is likely that this residue is important for recognizing the carboxyl group of malonyl-CoA, and this is also consistent with the hypothesis that the biotin substrate may be mostly associated with the C domain. Of the charged side chains that interact with the phosphate groups of CoA, mutation of Arg1731 gave rise to a 14-fold increase in the Km for malonyl-CoA (Table D), consistent with the structural observations. On the other hand, mutation of Arg2036 had minimal effects on the enzyme catalysis.
Mutagenesis and kinetic assays. The L1705I and V1967I single-site mutants as well as the L1705I/V1967I double mutant were made with the QuikChange kit (Stratagene), from the expression construct that covers residues 1476-2233. The mutants were sequenced, expressed in E. coli, and purified following the same protocol as that for thewild-type CT domain. The catalytic activity of the CT domain was assayed following protocols described earlier (Guchhait, R. B. et al. (1974) Acetyl coenzyme A carboxylase system from Escherichia coli. Purification and properties of the biotin carboxylase, carboxyltransferase, and carboxyl carrier protein components. J Biol Chem 249, 6633-6645; Zhang et al., 2003). […] The concentration of the malonyl-CoA substrate was kept close to the expected Km, 75 μM for the wild-type enzyme and 750 μM for the mutants. The wild-type enzyme was at 2.5 μM concentration, whereas the mutants were at 20 μM concentration.

CT domain of yeast ACC = target: T1, CT domain of yeast ACC (Saccharomyces cerevisiae, UniProt Q00955); assay: CT domain enzyme kinetic assay, inhibition (decarboxylation of malonyl-CoA coupled to citrate synthase and malate dehydrogenase); assay type: biochemical, S. cerevisiae
T1 construct: made in house; host or cells: E. coli (pET24d)
Excerpt: The CT domain can catalyze the decarboxylation of malonyl-CoA to produce acetyl-CoA in the presence of biotin methyl ester. Thus, the enzyme kinetic assays monitor the production of acetyl-CoA by coupling it to citrate synthase and malate dehydrogenase, which ultimately lead to the reduction of NAD^+.
Enzyme kinetic assays. The CT domain can catalyze the decarboxylation of malonyl-CoA to produce acetyl-CoA in the presence of biotin methyl ester. The kinetic assays monitored the production of acetyl-CoA by coupling it to citrate synthase and malate dehydronase, which ultimately lead to the reduction of NAD^+ (Guchhait et al., 1974, J. Biol. Chem. 9:6633-6645).

[2] = target: T2, L1705I, V1967I and L1705I/V1967I mutants of the yeast CT domain (Saccharomyces cerevisiae, UniProt Q00955); assay: CT domain enzyme kinetic assay, inhibition of mutant CT domains; assay type: biochemical, S. cerevisiae; settings: single and double mutants; malonyl-CoA 750 μM, mutants at 20 μM
T2 construct: fused on or other part: C-terminal His-tag (pET24d)
Excerpt: as §1
Mutagenesis and kinetic assays. The L1705I and V1967I single-site mutants as well as the L1705I/V1967I double mutant were made with the QuikChange kit (Stratagene), from the expression construct that covers residues 1476-2233. The mutants were sequenced, expressed in E. coli, and purified following the same protocol as that for thewild-type CT domain. […]

ACC = settings: cited from earlier work
mammalian ACC2 = settings: cited from earlier work
[3] = target: the molecule itself; assay: light scattering in solution (homodimer)

T1 sequence (Q00955 1429-2233): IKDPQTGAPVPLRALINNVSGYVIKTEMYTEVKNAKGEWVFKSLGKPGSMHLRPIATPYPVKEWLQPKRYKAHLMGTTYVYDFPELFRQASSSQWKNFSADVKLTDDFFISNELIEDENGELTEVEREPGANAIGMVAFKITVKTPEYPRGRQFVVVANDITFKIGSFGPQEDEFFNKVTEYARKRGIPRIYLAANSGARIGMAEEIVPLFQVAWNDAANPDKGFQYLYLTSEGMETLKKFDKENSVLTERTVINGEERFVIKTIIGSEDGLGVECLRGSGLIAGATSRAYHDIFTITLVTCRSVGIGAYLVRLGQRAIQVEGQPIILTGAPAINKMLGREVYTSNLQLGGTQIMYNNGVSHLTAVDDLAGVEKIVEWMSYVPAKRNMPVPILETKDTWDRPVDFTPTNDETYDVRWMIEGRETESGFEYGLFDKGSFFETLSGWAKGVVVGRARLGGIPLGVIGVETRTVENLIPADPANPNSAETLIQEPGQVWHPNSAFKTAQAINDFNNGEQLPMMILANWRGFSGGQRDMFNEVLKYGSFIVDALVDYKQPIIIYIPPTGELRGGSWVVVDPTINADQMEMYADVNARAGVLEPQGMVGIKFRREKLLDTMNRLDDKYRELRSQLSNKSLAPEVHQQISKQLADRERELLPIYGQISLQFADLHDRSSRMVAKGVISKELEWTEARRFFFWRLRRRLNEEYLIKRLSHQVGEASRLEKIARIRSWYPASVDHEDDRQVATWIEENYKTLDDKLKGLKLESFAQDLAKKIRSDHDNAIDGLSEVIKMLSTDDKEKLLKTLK
T2 sequence (Q00955 whole entry L1705I/V1967I, form open, the tested form may be a part): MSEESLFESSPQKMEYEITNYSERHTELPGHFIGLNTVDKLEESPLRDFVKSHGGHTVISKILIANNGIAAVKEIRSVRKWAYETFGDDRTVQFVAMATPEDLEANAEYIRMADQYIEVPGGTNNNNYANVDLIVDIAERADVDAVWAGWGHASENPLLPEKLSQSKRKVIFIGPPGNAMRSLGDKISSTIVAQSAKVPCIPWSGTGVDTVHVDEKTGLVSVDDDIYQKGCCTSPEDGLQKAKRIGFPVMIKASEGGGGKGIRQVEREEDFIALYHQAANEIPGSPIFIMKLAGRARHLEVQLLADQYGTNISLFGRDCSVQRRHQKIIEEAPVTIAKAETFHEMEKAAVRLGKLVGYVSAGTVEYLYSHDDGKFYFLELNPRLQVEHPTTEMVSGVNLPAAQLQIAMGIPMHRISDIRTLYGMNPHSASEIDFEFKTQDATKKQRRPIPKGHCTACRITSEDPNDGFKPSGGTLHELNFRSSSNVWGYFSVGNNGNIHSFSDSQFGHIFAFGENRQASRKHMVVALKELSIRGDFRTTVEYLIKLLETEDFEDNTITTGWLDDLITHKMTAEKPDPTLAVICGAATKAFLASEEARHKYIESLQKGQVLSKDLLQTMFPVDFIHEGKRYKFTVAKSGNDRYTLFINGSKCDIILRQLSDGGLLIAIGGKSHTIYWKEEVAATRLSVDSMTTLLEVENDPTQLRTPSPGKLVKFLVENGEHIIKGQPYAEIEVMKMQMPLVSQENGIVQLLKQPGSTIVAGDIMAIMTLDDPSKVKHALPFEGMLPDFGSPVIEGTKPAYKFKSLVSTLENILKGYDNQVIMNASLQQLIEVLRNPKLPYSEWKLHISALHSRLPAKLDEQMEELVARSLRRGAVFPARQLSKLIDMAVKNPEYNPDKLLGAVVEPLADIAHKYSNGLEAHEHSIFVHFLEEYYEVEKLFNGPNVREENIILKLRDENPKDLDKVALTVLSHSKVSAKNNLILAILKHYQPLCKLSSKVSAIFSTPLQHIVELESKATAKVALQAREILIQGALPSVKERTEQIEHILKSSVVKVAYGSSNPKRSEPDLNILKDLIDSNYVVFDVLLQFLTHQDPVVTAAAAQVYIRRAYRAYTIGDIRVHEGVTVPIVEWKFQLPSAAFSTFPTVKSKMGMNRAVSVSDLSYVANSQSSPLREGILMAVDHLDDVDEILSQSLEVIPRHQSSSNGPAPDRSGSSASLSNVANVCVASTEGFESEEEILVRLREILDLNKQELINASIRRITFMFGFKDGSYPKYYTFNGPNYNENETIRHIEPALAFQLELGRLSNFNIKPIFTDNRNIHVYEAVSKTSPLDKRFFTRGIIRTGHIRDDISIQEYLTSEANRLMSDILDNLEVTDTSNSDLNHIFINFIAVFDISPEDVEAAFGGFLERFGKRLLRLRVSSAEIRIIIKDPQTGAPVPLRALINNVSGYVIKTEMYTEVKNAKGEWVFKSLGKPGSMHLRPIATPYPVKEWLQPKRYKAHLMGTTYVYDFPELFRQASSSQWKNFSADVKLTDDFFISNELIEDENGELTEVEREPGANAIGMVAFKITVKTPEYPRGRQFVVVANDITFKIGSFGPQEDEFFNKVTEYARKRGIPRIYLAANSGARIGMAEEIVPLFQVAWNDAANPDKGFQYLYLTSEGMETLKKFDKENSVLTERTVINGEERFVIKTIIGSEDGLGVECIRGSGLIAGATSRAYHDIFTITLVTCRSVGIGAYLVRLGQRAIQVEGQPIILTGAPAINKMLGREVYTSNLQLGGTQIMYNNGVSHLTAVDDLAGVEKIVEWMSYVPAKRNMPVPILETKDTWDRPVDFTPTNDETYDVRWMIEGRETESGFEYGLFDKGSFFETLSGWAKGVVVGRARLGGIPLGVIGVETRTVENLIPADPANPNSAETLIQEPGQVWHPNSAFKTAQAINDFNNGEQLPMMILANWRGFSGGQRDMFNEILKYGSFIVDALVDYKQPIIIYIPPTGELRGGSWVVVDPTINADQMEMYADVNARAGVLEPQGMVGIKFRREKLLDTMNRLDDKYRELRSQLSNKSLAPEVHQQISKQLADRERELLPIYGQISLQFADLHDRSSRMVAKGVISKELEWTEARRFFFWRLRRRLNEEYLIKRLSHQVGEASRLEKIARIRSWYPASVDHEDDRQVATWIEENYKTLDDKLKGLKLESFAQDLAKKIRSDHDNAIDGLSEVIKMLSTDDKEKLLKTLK

Row | Molecule | Km [1] | Vmax [1] | other results
1 | Y1738F | 53 ± 6 µM | 152 ± 3 ×10^−5 AU/s | –
2 | CC(Oc1ccc(Oc2ncc(C(F)(F)F)cc2Cl)cc1)C(=O)O (stereo not drawn) [haloxyfop] | – | – | Ki (CT domain of yeast ACC): ~500 µM; Ki [2]: ~500 µM
3 | R2036E | 41 ± 4 µM | 133 ± 3 ×10^−5 AU/s | –
4 | E1994Q | 109 ± 5 µM | 272 ± 3 ×10^−5 AU/s | –
5 | R1731S | 909 ± 72 µM | 385 ± 10 ×10^−5 AU/s | –
6 | CC(Oc1ccc(Oc2ncc(C(F)(F)F)cc2Cl)cc1)C(=O)SCCNC(=O)CCNC(=O)C(O)C(C)(C)COP(=O)(O)OP(=O)(O)OCC1OC(n2cnc3c(N)ncnc32)C(O)C1OP(=O)(O)O (stereo not drawn) [CoA ester of haloxyfop] | – | – | potency relative to haloxyfop (ACC): more potent inhibitor
7 | R1954S | 5100 ± 1200 µM | 39 ± 6 ×10^−5 AU/s | –
8 | E2026Q | 218 ± 24 µM | 144 ± 6 ×10^−5 AU/s | –
9 | O=C(c1c2ccccc2cc2ccccc12)N1CCC(N2CCC[C@@H](C(=O)N3CCOCC3)C2)CC1 [CP-640186] | – | – | IC50 (mammalian ACC2): ~0.055 µM; Ki (CT domain of yeast ACC; versus malonyl-CoA, about 3 μM of enzyme in the reaction buffer, read-out: Ki): ~4 µM; mode of inhibition (CT domain of yeast ACC; with respect to malonyl-CoA): non-competitive
10 | B1 | – | – | binding result [3]: binds
11 | B2 | 1340 ± 180 µM | 12 ± 0.3 ×10^−5 AU/s | –
